The text below walks through data of patent publication US20220395548A1 (MOREHOUSE SCHOOL OF MEDICINE, published 2022).

Test [1] addresses T1, purified HIV-1 gp120 (gp120-IIIB, Immuno Dx) (HIV-1 (IIIB), UniProt P04578 33-511).
T1 construct: domain: gp120; also called HIV gp120; purified gp120
The test is described as follows: SPR (Biacore T200), gp120 amine-coupled to CM5 chip, MoMo30 flowed over; 1:1 model fit; three independent measurements in triplicate.

The target in test [2] is gp120 of HIV-1NL4-3 (on virus particles) (HIV-1 (NL4-3)). Kind of test: cell-based or functional assay.

B1: MoMo30 protein from Momordica balsamina (purified from leaf extract, 30 kDa cutoff retentate) (other)
chain: GGIATYWGQDTREGRLTAACATGKFQIINIGFLSTFGNGRPPQVNLTRHCSPISNGCRNVSVGVLNCRNDGVKVMLSIGGPHGSYSLSSAAEAIDLADYIWNNFLGGRSTSLRPFGDVPLDGVDFRIERGQFSHYYTMVARRLHDYGRQCSRKVYLTAAPGCRFPDKYLTELLHTGLFDYVWVRFFDDRQCQYNSVNPSGFWWSWMRWINSIPARKFYVGIPASEEAGDGYVAPEVLIKEVLPFTKKFTNYGGVMLFDLSNDVQTNYSSIISNRV
notes: also called 30 kDa MoMo protein; hevamine A-related MoMo30 protein
In test [1], B1 came in with a Kd of 6 µM, a koff of 0.00242 s⁻¹ and a kon of 400 M⁻¹ s⁻¹. Also, the “IC50 of inhibition of HIV-1NL4-3 infectivity, MAGI cell assay” value in test [2] was 0.0028 µM.
